According to paper PMC6602975:
pKd: −log10 of the molar value.

Assays:
Assay in all cases: EMSA
[1] = system: Sir3 BAH D205Q (Saccharomyces cerevisiae); conditions: apparent Kd, 10 mM Tris pH 7.5, 50 mM NaCl, 2.5% glycerol, 1 mM DTT, room temperature 30 min, 25 or 50 nM nucleosome, native PAGE 0.2x TBE
[2] = system: T1, Orc1 BAH WT (Saccharomyces cerevisiae); conditions: apparent Kd, 10 mM Tris pH 7.5, 50 mM NaCl, 2.5% glycerol, 1 mM DTT, room temperature 30 min, 25 or 50 nM nucleosome, native PAGE 0.2x TBE
T1 sequence: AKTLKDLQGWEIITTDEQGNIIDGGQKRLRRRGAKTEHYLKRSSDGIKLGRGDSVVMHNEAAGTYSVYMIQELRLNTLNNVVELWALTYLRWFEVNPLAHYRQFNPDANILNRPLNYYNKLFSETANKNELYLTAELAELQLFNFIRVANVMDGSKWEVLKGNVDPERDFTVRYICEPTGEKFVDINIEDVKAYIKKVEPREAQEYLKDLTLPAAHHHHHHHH

[3] = system: Orc1 BAH Lid swap (Saccharomyces cerevisiae); conditions: 10 mM Tris pH 7.5, 50 mM NaCl, 2.5% glycerol, 1 mM DTT, room temperature 30 min, 25 or 50 nM nucleosome, native PAGE 0.2x TBE
[4] = system: Sir3 BAH Lid D205Q (Saccharomyces cerevisiae); conditions: apparent Kd, 10 mM Tris pH 7.5, 50 mM NaCl, 2.5% glycerol, 1 mM DTT, room temperature 30 min, 25 or 50 nM nucleosome, native PAGE 0.2x TBE
[5] = system: Sir3 BAH D205N (Saccharomyces cerevisiae); conditions: apparent Kd, 10 mM Tris pH 7.5, 50 mM NaCl, 2.5% glycerol, 1 mM DTT, room temperature 30 min, 25 or 50 nM nucleosome, native PAGE 0.2x TBE
[6] = system: Orc1 BAH E95K (Saccharomyces cerevisiae); conditions: apparent Kd; 10 mM Tris pH 7.5, 50 mM NaCl, 2.5% glycerol, 1 mM DTT, room temperature 30 min; 25 or 50 nM nucleosome; native PAGE 0.2x TBE
[7] = system: Orc1 BAH Q205D (Saccharomyces cerevisiae); conditions: apparent Kd; 10 mM Tris pH 7.5, 50 mM NaCl, 2.5% glycerol, 1 mM DTT, room temperature 30 min; 25 or 50 nM nucleosome; native PAGE 0.2x TBE
[8] = system: Orc1 BAH A2P (Saccharomyces cerevisiae); conditions: 10 mM Tris pH 7.5, 50 mM NaCl, 2.5% glycerol, 1 mM DTT, room temperature 30 min; 25 or 50 nM nucleosome; native PAGE 0.2x TBE
[9] = system: Orc1 BAH R202E (Saccharomyces cerevisiae); conditions: 10 mM Tris pH 7.5, 50 mM NaCl, 2.5% glycerol, 1 mM DTT, room temperature 30 min; 25 or 50 nM nucleosome; native PAGE 0.2x TBE
[10] = system: Orc1 BAH L79I (Saccharomyces cerevisiae); conditions: 10 mM Tris pH 7.5, 50 mM NaCl, 2.5% glycerol, 1 mM DTT, room temperature 30 min; 25 or 50 nM nucleosome; native PAGE 0.2x TBE
[11] = histone H4 K16ac (genetically encoded), DNA unmodified

H4K16ac nucleosome (147 bp 601)
pKd [1, 11]: 5.92
pKd [2, 11]: 5.82
pKd ([3]; apparent Kd, histone H4 K16ac (genetically encoded), DNA unmodified): 5.43
pKd [4, 11]: 5.77
pKd [5, 11]: 6.09

H4K16Q nucleosome (147 bp 601)
pKd ([3]; histone H4 K16Q (acetyl mimic), DNA unmodified): 5.85

WT nucleosome (147 bp 601, unmodified)
pKd [1]: 6.52
pKd [2]: 5.89
pKd ([2]; reference set for mutants): 5.96
pKd [6]: 5.36
pKd [3]: 6.15
pKd ([3]; apparent Kd, comparison set with H4K16ac): 6.22
pKd [4]: 6.00
pKd [7]: 5.29
pKd [5]: 6.66
pKd [8]: 5.72
binding signal (fold decrease in affinity vs Orc1 WT) [9]: 4.9
pKd [10]: 6.40
